Reference: publication PMC9943670, “The homeodomain of Oct4 is a dimeric binder of methylated CpG elements”

What was measured:
Oct4 POU [1] = target: T1, Oct4 POU (mouse, UniProt P20263); test: EMSA; 1 nM DNA, 1-500 nM protein; nanomolar Kd, value only in figure; monomer; EMSA buffer composition not given; 1 h at RT; gels in 1x TG, 200 V, 4 C; probes annealed in 20 mM Tris-HCl pH 8.0, 50 mM MgCl2, 50 mM KCl; protein stock 10 mM HEPES pH 7.0, 100 mM NaCl, 10% glycerol, 0.5 mM TCEP; conditions: protein: recombinant; Methods: TEV-cleaved tag; label: 5' Cy5 on forward strand; blunt
Brn2 POUS linker = target: T2, Brn2 POUS linker (mouse, UniProt P31360); test: EMSA; 50 nM DNA; EMSA buffer composition not given; 1 h at RT; gels in 1x TG, 200 V, 4 C; probes annealed in 20 mM Tris-HCl pH 8.0, 50 mM MgCl2, 50 mM KCl; protein stock 10 mM HEPES pH 7.0, 100 mM NaCl, 10% glycerol, 0.5 mM TCEP; conditions: protein: recombinant; tags: tag cleaved by TEV (leaves G); label: 5' Cy5 on forward strand; blunt
T2 sequence: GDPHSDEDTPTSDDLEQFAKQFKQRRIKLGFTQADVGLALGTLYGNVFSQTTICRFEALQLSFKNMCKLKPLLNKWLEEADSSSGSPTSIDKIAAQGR

Oct4 POUHD [2] = target: T3, Oct4 POUHD (mouse, UniProt P20263); test: EMSA; 50 nM DNA; high affinity, homodimer also forms; EMSA buffer composition not given; 1 h at RT; gels in 1x TG, 200 V, 4 C; probes annealed in 20 mM Tris-HCl pH 8.0, 50 mM MgCl2, 50 mM KCl; protein stock 10 mM HEPES pH 7.0, 100 mM NaCl, 10% glycerol, 0.5 mM TCEP; conditions: protein: recombinant; tags: tag cleaved by TEV (leaves G); chain copies: 2; label: 5' Cy5 on forward strand; blunt
Brn2 POUHD [3] = target: T4, Brn2 POUHD (mouse, UniProt P31360); test: EMSA; 50 nM DNA; high affinity, no dimer detectable; EMSA buffer composition not given; 1 h at RT; gels in 1x TG, 200 V, 4 C; probes annealed in 20 mM Tris-HCl pH 8.0, 50 mM MgCl2, 50 mM KCl; protein stock 10 mM HEPES pH 7.0, 100 mM NaCl, 10% glycerol, 0.5 mM TCEP; conditions: protein: recombinant; tags: tag cleaved by TEV (leaves G); label: 5' Cy5 on forward strand; blunt
T4 sequence: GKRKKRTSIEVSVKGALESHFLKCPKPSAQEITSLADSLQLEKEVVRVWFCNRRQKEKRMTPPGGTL

Brn2 POU [4] = target: T5, Brn2 POU (mouse, UniProt P31360); test: EMSA; 1 nM DNA, 0.4-100 nM protein; nanomolar Kd, value only in figure; monomer; EMSA buffer composition not given; 1 h at RT; gels in 1x TG, 200 V, 4 C; probes annealed in 20 mM Tris-HCl pH 8.0, 50 mM MgCl2, 50 mM KCl; protein stock 10 mM HEPES pH 7.0, 100 mM NaCl, 10% glycerol, 0.5 mM TCEP; conditions: protein: recombinant; tags: tag cleaved by TEV (leaves G); label: 5' Cy5 on forward strand; blunt
T5 sequence: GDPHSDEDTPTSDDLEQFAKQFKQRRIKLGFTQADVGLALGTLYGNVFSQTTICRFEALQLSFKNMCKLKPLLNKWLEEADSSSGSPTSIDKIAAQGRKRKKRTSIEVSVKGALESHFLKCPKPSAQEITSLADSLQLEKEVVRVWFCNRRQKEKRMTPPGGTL

Oct4 POUHD [5] = target: T3, Oct4 POUHD; test: EMSA; 50 nM DNA; homodimer more efficient than full POU; EMSA buffer composition not given; 1 h at RT; gels in 1x TG, 200 V, 4 C; probes annealed in 20 mM Tris-HCl pH 8.0, 50 mM MgCl2, 50 mM KCl; protein stock 10 mM HEPES pH 7.0, 100 mM NaCl, 10% glycerol, 0.5 mM TCEP; conditions: protein: recombinant; tags: tag cleaved by TEV (leaves G); chain copies: 2; label: 5' Cy5 or FAM on forward strand; blunt
Brn2 POUHD [6] = target: T4, Brn2 POUHD; test: EMSA; 50 nM DNA; dimer with strongly reduced cooperativity; EMSA buffer composition not given; 1 h at RT; gels in 1x TG, 200 V, 4 C; probes annealed in 20 mM Tris-HCl pH 8.0, 50 mM MgCl2, 50 mM KCl; protein stock 10 mM HEPES pH 7.0, 100 mM NaCl, 10% glycerol, 0.5 mM TCEP; conditions: protein: recombinant, tags: tag cleaved by TEV (leaves G), blunt
Oct4 POU [7] = target: T1, Oct4 POU; test: EMSA (single-tube dual color); FAM-CpGpal with Cy5-MORE; dimerizes more effectively on CpGpal than Brn2 does; EMSA buffer composition not given; 1 h at RT; gels in 1x TG, 200 V, 4 C; probes annealed in 20 mM Tris-HCl pH 8.0, 50 mM MgCl2, 50 mM KCl; protein stock 10 mM HEPES pH 7.0, 100 mM NaCl, 10% glycerol, 0.5 mM TCEP; conditions: protein: recombinant; Methods: TEV-cleaved tag; label: 5' Cy5 or FAM on forward strand; blunt
Brn2 POU [8] = target: T5, Brn2 POU; test: EMSA (single-tube dual color); Cy5-MORE with FAM-CpGpal; preferred, dimer; EMSA buffer composition not given; 1 h at RT; gels in 1x TG, 200 V, 4 C; probes annealed in 20 mM Tris-HCl pH 8.0, 50 mM MgCl2, 50 mM KCl; protein stock 10 mM HEPES pH 7.0, 100 mM NaCl, 10% glycerol, 0.5 mM TCEP; conditions: protein: recombinant; tags: tag cleaved by TEV (leaves G); label: 5' Cy5 on one strand; blunt; self-complementary strand, 2 copies
Oct4 POUHD [9] = target: T3, Oct4 POUHD; test: EMSA; 50 nM DNA; homodimer, minor effect of methylation; EMSA buffer composition not given; 1 h at RT; gels in 1x TG, 200 V, 4 C; probes annealed in 20 mM Tris-HCl pH 8.0, 50 mM MgCl2, 50 mM KCl; protein stock 10 mM HEPES pH 7.0, 100 mM NaCl, 10% glycerol, 0.5 mM TCEP; conditions: protein: recombinant; tags: tag cleaved by TEV (leaves G); chain copies: 2; label: 5' Cy5 on forward strand; blunt
Oct4 POU [10] = target: T1, Oct4 POU; test: EMSA; 50 nM DNA, 25-800 nM protein; cooperative homodimer; EMSA buffer composition not given; 1 h at RT; gels in 1x TG, 200 V, 4 C; probes annealed in 20 mM Tris-HCl pH 8.0, 50 mM MgCl2, 50 mM KCl; protein stock 10 mM HEPES pH 7.0, 100 mM NaCl, 10% glycerol, 0.5 mM TCEP; conditions: protein: recombinant; Methods: TEV-cleaved tag; label: 5' Cy5 on forward strand; blunt
Brn2 POU [11] = target: T5, Brn2 POU; test: X-ray crystallography; 1.89 A; homodimer; 0.2 M MgCl2, pH 5.0; EMSA buffer composition not given; 1 h at RT; gels in 1x TG, 200 V, 4 C; probes annealed in 20 mM Tris-HCl pH 8.0, 50 mM MgCl2, 50 mM KCl; protein stock 10 mM HEPES pH 7.0, 100 mM NaCl, 10% glycerol, 0.5 mM TCEP; conditions: protein: recombinant; tags: tag cleaved by TEV (leaves G); blunt; self-complementary strand, 2 copies
Oct4 POU [12] = target: T1, Oct4 POU; test: EMSA; 50 nM DNA; homodimer, 5hmC no effect; EMSA buffer composition not given; 1 h at RT; gels in 1x TG, 200 V, 4 C; probes annealed in 20 mM Tris-HCl pH 8.0, 50 mM MgCl2, 50 mM KCl; protein stock 10 mM HEPES pH 7.0, 100 mM NaCl, 10% glycerol, 0.5 mM TCEP; conditions: protein: recombinant; Methods: TEV-cleaved tag; label: 5' Cy5 on forward strand; blunt

T1 sequence (P20263 other isoform, or with tags, fused parts or gaps): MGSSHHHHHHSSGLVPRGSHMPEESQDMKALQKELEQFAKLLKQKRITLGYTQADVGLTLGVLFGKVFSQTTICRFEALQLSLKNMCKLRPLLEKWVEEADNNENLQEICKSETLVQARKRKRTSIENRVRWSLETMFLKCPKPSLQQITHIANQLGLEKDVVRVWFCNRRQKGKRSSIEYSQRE
T3 sequence (P20263 other isoform, or with tags, fused parts or gaps): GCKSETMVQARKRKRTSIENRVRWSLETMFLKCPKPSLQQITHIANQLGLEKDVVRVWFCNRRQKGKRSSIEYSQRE

B1: Octamer (dsDNA)
DNA 1: GGCGGCGGATGCAAATCGGCGGCGG
DNA 2: CCGCCGCCGATTTGCATCCGCCGCC
B1: binds (Oct4 POU [1]); no binding (Brn2 POUS linker); binds (Oct4 POUHD [2]). B1: binds (Brn2 POUHD [3]); binds (Brn2 POU [4]).

B2: CpGpal fully methylated (dsDNA)
DNA 1: GCCGCCTTATGCGCATAAGCCGCCGC
DNA 2: GCGGCGGCTTATGCGCATAAGGCGGC
modifications: 5mC at the central CpG (ATG5mCGCAT), both strands
B2: binds (Oct4 POUHD [5]); binds (Brn2 POUHD [6]; label: 5' Cy5 or FAM on forward strand); binds (Oct4 POU [7]).

B3: MORE (dsDNA)
DNA 1: TCCTCATGCATATGCATGAGGA
DNA 2: TCCTCATGCATATGCATGAGGA
B3: binds (Brn2 POU [8]).

B4: CpGpal unmethylated (dsDNA)
DNA 1: GCCGCCTTATGCGCATAAGCCGCCGC
DNA 2: GCGGCGGCTTATGCGCATAAGGCGGC
B4: binds (Brn2 POUHD [6]; label: 5' Cy5 on forward strand); binds (Oct4 POUHD [9]); binds (Oct4 POU [10]).

B5: MORE (crystal) (dsDNA)
DNA 1: TCCTCATGCATATGCATGAGGA
DNA 2: TCCTCATGCATATGCATGAGGA
B5: binds (Brn2 POU [11]).

B6: CpGpal 5hmC (dsDNA)
DNA 1: GCCGCCTTATGCGCATAAGCCGCCGC
DNA 2: GCGGCGGCTTATGCGCATAAGGCGGC
modifications: 5hmC at the central CpG; strands carrying the mark not given
B6: binds (Oct4 POU [12]).
